{
  "source": "patent US20040248202A1",
  "about": "“Bacteriorhodopsin/G protein-coupled receptor chimeras” (Wisconsin Alumni Research Foundation, priority 1998, published 2004)",
  "biological_target": "transducin (Homo sapiens, UniProt P11488)",
  "sequence (P11488 2-350 limits assumed)": "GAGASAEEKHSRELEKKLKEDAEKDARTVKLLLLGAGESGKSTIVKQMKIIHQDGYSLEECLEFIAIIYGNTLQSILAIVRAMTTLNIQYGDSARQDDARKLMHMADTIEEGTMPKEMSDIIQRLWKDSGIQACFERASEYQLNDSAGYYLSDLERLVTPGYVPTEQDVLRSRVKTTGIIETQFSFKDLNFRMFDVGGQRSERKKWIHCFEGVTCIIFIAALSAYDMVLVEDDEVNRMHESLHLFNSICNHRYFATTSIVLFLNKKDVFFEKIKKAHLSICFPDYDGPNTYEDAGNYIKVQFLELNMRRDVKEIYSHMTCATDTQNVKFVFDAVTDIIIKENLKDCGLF",
  "sequence (P62873 2-340 partner limits assumed)": "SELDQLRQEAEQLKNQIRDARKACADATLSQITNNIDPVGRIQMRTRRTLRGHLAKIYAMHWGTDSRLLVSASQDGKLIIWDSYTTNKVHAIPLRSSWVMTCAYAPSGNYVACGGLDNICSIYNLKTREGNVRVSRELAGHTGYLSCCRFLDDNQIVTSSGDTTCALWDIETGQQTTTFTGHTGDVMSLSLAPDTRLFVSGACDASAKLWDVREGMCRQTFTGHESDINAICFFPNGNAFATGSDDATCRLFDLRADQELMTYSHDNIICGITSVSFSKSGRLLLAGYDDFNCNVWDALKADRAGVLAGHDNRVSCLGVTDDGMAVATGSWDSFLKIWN",
  "sequence (P63211 2-71 partner limits assumed)": "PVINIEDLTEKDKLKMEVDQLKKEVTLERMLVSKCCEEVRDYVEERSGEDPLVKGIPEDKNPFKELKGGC",
  "assay": "GTPyS uptake assay: effect of BR-rhodopsin loop 3 chimeras on GDP-GTP exchange on transducin",
  "type": "biochemical",
  "description": "The ability of the chimeric protein to promote GTP-GDP exchange was evaluated for each of three BR-rhodopsin loop 3 chimeras by evaluating the effect of the chimera on the rate of GDP-GTP exchange on transducin using a GTPyS uptake assay, as described below.\nChimeric or bacteriorhodopsin protein (1.7 uM) was incubated with 0.8 uM holotransducin with 10 nM ^35S radiolabeled GTPyS in buffer (20 mM Hepes (pH 7.5), 5 mM MgCl2, 1 mM DTT, 0.1 mM EDTA, and 20 mM NaCl). The reaction was incubated at 30° C. for 5, 10, 15 or 30 minutes. The reaction was terminated by transferring aliquots of the reaction mixture to nitrocellulose filters (0.45 um) prewetted with wash buffer (10 mM Tris (pH 7.5), 5 mM MgCl2, 100 mM NaC1, 0.1 mM EDTA) and placed on a vacuum manifold. The filters were then washed with 8 ml of wash buffer. The filters were then placed overnight in scintillation vials filled with 20 ml of scintillation cocktail. The activity of the vials was counted by a Liquid Scintillation Counter. For the BR-Rhodopsin loop 3 chimeras, in which the rhodopsin intracellular loop 3 replaced the native BR intracellular loop 3 and was fused from T157 on BR TM 5 to V167 on BR TM 6, activity was determined by an increased uptake of GTPS over basal exchange by transducin alone.\nA time course study was next performed for Rhodopsin Insert Y223 to M253 (3C)\nThe following experiments repeated the study of GTPγS exchange with a new culture of the BR-Rhodopsin chimera for Rhodopsin Insert Y223 (3C) as well as three new chimeras.",
  "key": {"[1]": {"conditions": "10 Minutes, new culture of 3C and three new chimeras"}},
  "data": [
    {"molecule": "3D: bacteriorhodopsin chimera, loop 3 replaced by bovine rhodopsin Q225-T251; loop amino acid sequence SEQ ID NO:32 (protein) QAQITGRPEWIWLALGTALMGLGTLYFLVKGMGVSDPDAKKFYAITTLVPAIAFTMYLSMLLGYGLTMVPFGGEQNPIYWARYADWLFTTPLLLLDLALLVDADQGTILALVGADGIMIGTGLVGALTKVYSYRFVWWAISTAAMLYILYVLFFGFTQLVFTVKEAAAQQQESATTQKAEKEVTVASTFKVLRNVTVVLWSAYPVVWLIGSEGAGIVPLNIETLLFMVLDVSAKVGFGLILLRSRAIFGEAEAPEPSAGDGAAATSD", "values": [
      {"measurement": "Activation (×100%) Over Basal Exchange", "setting": "[1]", "result": "1.0 ×100%"}
    ]},
    {"molecule": "3B: bacteriorhodopsin chimera, loop 3 replaced by bovine rhodopsin Y223-T251; loop amino acid sequence SEQ ID NO:28 (protein) QAQITGRPEWIWLALGTALMGLGTLYFLVKGMGVSDPDAKKFYAITTLVPAIAFTMYLSMLLGYGLTMVPFGGEQNPIYWARYADWLFTTPLLLLDLALLVDADQGTILALVGADGIMIGTGLVGALTKVYSYRFVWWAISTAAMLYILYVLFFGFTYGQLVFTVKEAAAQQQESATTQKAEKEVTVASTFKVLRNVTVVLWSAYPVVWLIGSEGAGIVPLNIETLLFMVLDVSAKVGFGLILLRSRAIFGEAEAPEPSAGDGAAATSD", "values": [
      {"measurement": "Activation (×100%) Over Basal Exchange", "setting": "[1]", "result": "1.17 ×100%"}
    ]},
    {"molecule": "3C: bacteriorhodopsin chimera, loop 3 replaced by bovine rhodopsin Y223-M253; loop amino acid sequence SEQ ID NO:30 (protein) QAQITGRPEWIWLALGTALMGLGTLYFLVKGMGVSDPDAKKFYAITTLVPAIAFTMYLSMLLGYGLTMVPFGGEQNPIYWARYADWLFTTPLLLLDLALLVDADQGTILALVGADGIMIGTGLVGALTKVYSYRFVWWAISTAAMLYILYVLFFGFTYGQLVFTVKEAAAQQQESATTQKAEKEVTRMVASTFKVLRNVTVVLWSAYPVVWLIGSEGAGIVPLNIETLLFMVLDVSAKVGFGLILLRSRAIFGEAEAPEPSAGDGAAATSD", "values": [
      {"measurement": "Activation (3C) (×10°) over Basal Exchange", "setting": "100 μM GDP, 10 Minutes", "result": 1.67, "unit": "×10°"},
      {"measurement": "Activation by 3C (×100%) Over Basal Exchange", "setting": "5 Minutes", "result": "1.56 ×100%"},
      {"measurement": "Activation by 3C (×100%) Over Basal Exchange", "setting": "10 Minutes", "result": "1.95 ×100%"},
      {"measurement": "Specific counts (Lattice Form)", "setting": "10 Minutes, 100 uM GDP", "result": 12577, "unit": "counts"},
      {"measurement": "Activation (×100%) Over Basal Exchange", "setting": "[1]", "result": "1.44 ×100%"},
      {"measurement": "Specific counts (Lattice Form)", "setting": "[1]", "result": 77125, "unit": "counts"},
      {"measurement": "Specific counts (Lattice Form)", "setting": "10 Minutes, no peptide (8 uM peptide experiment)", "result": 51423, "unit": "counts"},
      {"measurement": "SPECIFIC COUNTS: (Lattice Form)", "setting": "10 Minutes, no peptide (50 uM peptide experiment)", "result": 93448, "unit": "counts"},
      {"measurement": "Activation by 3C (×100%) Over Basal Exchange", "setting": "15 Minutes", "result": "1.97 ×100%"},
      {"measurement": "Specific counts (Lattice Form)", "setting": "time course, 5 min", "result": 26273, "unit": "counts"},
      {"measurement": "Specific counts (Lattice Form)", "setting": "time course, 10 min", "result": 51423, "unit": "counts"},
      {"measurement": "Specific counts (Lattice Form)", "setting": "time course, 15 min", "result": 66566, "unit": "counts"}
    ]},
    {"molecule": "3E: bacteriorhodopsin chimera, loop 3 replaced by bovine rhodopsin G224-M253; loop amino acid sequence SEQ ID NO:34 (protein) QAQITGRPEWIWLALGTALMGLGTLYFLVKGMGVSDPDAKKFYAITTLVPAIAFTMYLSMLLGYGLTMVPFGGEQNPIYWARYADWLFTTPLLLLDLALLVDADQGTILALVGADGIMIGTGLVGALTKVYSYRFVWWAISTAAMLYILYVLFFGFTGQLVFTVKEAAAQQQESATTQKAEKEVTRMVASTFKVLRNVTVVLWSAYPVVWLIGSEGAGIVPLNIETLLFMVLDVSAKVGFGLILLRSRAIFGEAEAPEPSAGDGAAATSD", "values": [
      {"measurement": "Activation (×100%) Over Basal Exchange", "setting": "[1]", "result": "1.46 ×100%"}
    ]}
  ]
}
